In the nanobody polyreactivity screen of Harvey et al. (2022):

Assay: yeast display, Sf9 membrane polyspecificity reagent, FACS + sequencing; frameworks hold sequencing errors
Summary of the method: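 Sorting gates, low and high (top ~1%), were placed on anti-HA fluorescence to track expression and on streptavidin fluorescence to track reagent binding. A clone's polyreactivity label is taken from the gate it came out of. The reagent was 10% biotinylated, detergent-solubilized Sf9 membrane, applied for 1 hour at 4 °C to galactose-induced yeast display cells.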

Sequence	polyreactivity (PSR sort gate)
QVQLVESGGGLVHAGGSLRLSCAASGRIFSYYTMGWYRQAPGKERELVAAITASDGDTYYADSVKGRFTISRDNAMNTVYLQMNSLKPEDTAVYYCAADFWYYHTRMDYWGKGTQVTVSS	low polyreactivity
QVQLVESGGGLVQAGGSLRLSSAASGSTFTSYAMGWYRQAPGKERELVAAINYSGGSTYYADSVKGRFTISRDNAKNNVYLQMNILKQEDTAVYDCAADGYIRQYVTYYYWGQGTQVTVSS	low polyreactivity
QVQLVESVGGLVQAGGSLRLSCAASGRTFYFYAMGWYRQAPGKERELVAAITSGDTTHYADSVKGRFTISRDNAKNTVYLQMNSLKPDDTAVYYCAADKFKKISGYQRRSNYWGQGTQVTVSS	low polyreactivity
QVQLVESGGGLVQAGGSLRLSCAASGITFSVYTMGWYIQAPGKERELVAAIDSDGITNYADSVKGRFTISRDNEKNNVYLQMNSLKPEDTAVSYCAKQTGRADGVSGFDYWGQGTQVTVSS	low polyreactivity
QVQLVESGGGLVQARGSLRLSCAASGLTFYYYVMGWYRQAPGKERELVAAISYSGGRTYYADSVKGRFTISRDNAKNTVYLQMNSLKPEDTAVYYCAAQSRYGGKFYYWGQGTQVTVSS	high polyreactivity
QVQLVESGGGLVQAGGSLRLSCAASGRIFRYYAMGWYRKAPGKERELVASISQRGGSTYYADSVKGRFTISRDNAKNTVYLQMNSLKPEDTAVYYCAARRSTVFILDYDWGQGTQVTVSS	high polyreactivity
QVQLVESGGRLVQEGGSLRLSCAASGSSLRSYAMGRYRQAPGKERELLAAISGSGDSTYYADSVKGRFTISRDNAKNTVYLQMNSLKPEDTAVYYCNAVFAFNGYVYWGQGTQVTVSS	low polyreactivity
QVQLVESGGGLVQAGGSLRLSCAASGLTFYHYAMGWYRQAPGIERELVAAISYSGSRTYYADSVKGRFTISRDTAKNTVYLQMNSLKPEVTAVYYCAAKRTKEYDYWGQGTQVTVSS	high polyreactivity
QVQLVESGGGLVQAGGSLRLSCDSSGSIFGYYAMGWYRQAPGKERELVAAITSGGNTYYADSVKGRFTISRDNAKNTVYLQMNSLKPEDTAVYYCNAVWRTRDYDYWGQGTQVTVSS	low polyreactivity
QVQLVESGGGLVQAGGSLRLSCAASGIIFWRYAMGWYRQAPGKERELVAGITSRGGSTYYADSVKGRFTISRDNAKNTVYLQMNSLKPEDTAVYYCNADWYGQLWWGVDYWGQGTQVTVSS	high polyreactivity
QVQIVESGGCLVQAGGSLRLSCAASGRTFWYYTMGWYRQAPGKEREFVAAISYSAGNTYYADSVKGRFTISRDNAKNTVYLQMNSLKPEDTAVNYCAVQRGYRSNAYDYWGQGTQVTVSS	high polyreactivity
QVQLVESGGGLVQAGGSLRLTCAASGFTFSGYAMGWYRQAPGKERELVAAISSSGASTYYADSVKGRFRISRDNAKYTVYLQMNSLNPEDTAVYYCNTLYYFPYLWPYDYWGQGTQVTVSS	high polyreactivity
QVQLVESGGGLVQAGGSLRLSCAASGRTFRHYAMGWYRQAPGKDRELVAAISGSGGRTYYADSVKGRFTISRDNAKNTVYLQMNSLKPEDTAVYYCATRHTTRFYWGQGTQVTVSS	high polyreactivity
QVQLVESGGGLVQAGGSLRLSCAASGIFDRYAMGWYRQAPGKERELVAAISYNAGSTYYADSVKGRFTISRDNAKNTVYLQMNSLKPEDTAVYYCAARGFGTVNGKLYGYWGQGTQVTVSS	high polyreactivity
QVQLEESGGALVQAGGSLRLSCAASGRTFSGNAMGWYRQAPGKERELVAAISSGGSTNYADSVKGRFTISRDNAKNTVYLQMNSLKPEDTAVYYCAADEWRFPSYAYYYWGQGTQVTVSS	low polyreactivity
QVLLQESGGGLVQAGGSLRLSCAASGSIFLFYTMGWNRQAPVKEREFVAGITLGTTTYNADSVKGRFTISRDNVKNTVYLQKNSLKPEDTAVYYCAVAVGHYTEFWYWGQGTQVTMSS	high polyreactivity
QVQLVESGGGLVQAGGSLRLSCAASGRIFSYNAMGLYRPAPVKERELFAAITFSGGGTYYADSVKGRFTISRDNAKNTVYLQMKSLKPEDTAVYYCNKVSYGYSTYGYWGQGTQVTVSS	low polyreactivity
QVQLVESGGGLVQAGGSLRLSCAASGRIFRDYAMGWYRQAPGKETELVATITWSGATTYYADSVKGRFTISRDNAKNTVYLQMNSLKPEDTAVYYCNTDTDVDVAFDSWGQGTQVTVSS	low polyreactivity
QVQLVESGGGLVQAGGSLRLSCAASGRTFRLYAMGWYRQAPGKERELVAAITRGGRTNYADSVKGRFTISRDNAKNTVYLQMNSLKPEDPAVYYCAARYVERHTDYYYWGQGTQVTVSS	low polyreactivity
QVQLVESGGGLVQAGGSLRLSCAASGITFSRNAMGWYRQAPGKERELVAVISTRGGRTYYADSVKGRFTISRDNAKNTVYLQMISLKPEDTAVYYCAASPDPYWRRMDYWGQGTQVTVSS	high polyreactivity
QVQLVESGGGLVQAGGSLRLSCAASGITFNHYAMGWSRQAPGKERELVAVISRTVGSTYYADSVKGRFTISRDNAKNTVYLQMNSLKPEDTAVYYCAARGPRPDGYSGRSDYWGQGTQVTVSS	high polyreactivity
QVQLVESGGGLVQAGGRLRLSCAASGSTFSRNTMGWYRQAPGKESELVAAISKSGGRTYYADSVKGRFTISRDNAKNTVYLQMNSLKPEDTAVYYCNGVKLLGTRGYGYLGQGTQVTVSS	high polyreactivity

Sequence	polyreactivity (PSR sort gate)
QVQLVESGAGLVQAGGSLRLRCAASGYTLGPYAMGWYRPAPGKERELVAAISWGGGRTYYADSVKGRFTISRDNAKNTVYLQMNSLKPEDTAVYDCAAKWSHVRDGPKYDYWGQGTQVTVSS	low polyreactivity
QVQLQESGGGLVQAGGSLRLSCAASGSISYPRTMGWYRQAPGKEREFVAGIGVGGTTYYADSVKGRFTISRDNAKNTVYLQMHSLKPEDAAVFYFAVAAFYDKYYVYWGQGTQVTVSC	low polyreactivity
QVQLVESGGALVQEGGSLRLSCAASGITFAGNAMGWYRQAPGKERELVATITSDGNTNYAVSVKGRFTISRDNAKNTVYLQMNSLKPEDTAVYYCNAEGENRRDRYDYWGQGTQVTVSS	low polyreactivity
QVQLVESGGGLVQAGGSLRLSCAASGSIFGYNVMGWYRQAPGKERELVAGITSGGSTNYADSVKGRFTISRDNAKNTVYLQMNSLKPEDTAVYYCNAEGVFGDGRSGFYWYDYWGQGTQVTVSS	low polyreactivity
QVQLVESGGGLVQAGGSLRLSCAASGSTFRGYAMGWYRQAPGKERELVAGITKRGGSTYYADSVKGRFTISRDNAKNTVYLQMNSLKPEDTAVYYCAAGKHRQAYEHDYWGQGTQVTVSS	high polyreactivity
EVQLVESGGGLVQAGGSLRLSCAASGFIFVSYAMGWYRQAPGKERELVAAISWSGGNTYYADSVKGRFTISRDNAKNTVYLQMNSLKPEDTAVYYCNTDKRSYPTHRRDFGYWGQGTQVTVSS	low polyreactivity
QVQLVESGGGLVQAGGSLRLICAASGFTLYAYAMGWYRQAPGKERELVAAISDSGGDTYYADSVKGRFTISRDNAKNTVYLQMNSLKPEDTAVYYCAALYNHWWEYDYWGQGTQVTVSS	low polyreactivity
QVQLVESGGGLVQAGGSLRLSCAASGSTFSWYVMGWYRQAPGKERELVAAISYRGGRTYYADSVKGRFTISRDNAKNTVYLQMNSLKPEDTAVYYCAARGVVDAGRTNRPYDYWGQGTQVTVSS	low polyreactivity
QVQLVESGGGLVQAGGSLRLSCAASGRIFGVYAMGWYRQAPGKERELVAAIYSGSSTYYADSVKGRFTISRDNAKNTVYLQMNSLKPEDTAVYYCAAVSRDDNYHDYYYWGQGTQVTVSS	low polyreactivity
QVQLVESGGGLVQAGGSLRLSCAASGRIFQYYAMGWYRQAPGKERELVAAITSGGRTTYADSVKGRFTISRDNAKNTVYLQMNSLKPEVTAVYYCNAKTWYSYNYWGQGTQVTVSS	high polyreactivity
QVQLVESGGGLVQAGGSLRLSCAASGRIFYLNAMGWYRQAPGKERQLVATITSGGSTNYADSVKGRFTISRDNAKNTVYLQMNSLKPEDTAVYYCAAGVSWYGPYDYLWFYAFDYWGQGTQVTVSS	low polyreactivity
QVQLVESGGGLVQAGGSLRLSCAASGSIFHGYAMGWYRQAPGKERELVAAISKSGGRTYYADSVKGRFTISRDNAKNTVYLQMNSLKPEDTAVYYCAAPATYKYDYWGQGTQVTVSS	high polyreactivity
QVQLVESGGALVQAGGSLRLSCAASGFTLSAYAKGWYRQAPGKERELVAGISYTGGRTYYADSVKGRFTISRDNAKNTVYLQMNSLKPEDTAVYYCNKAWSGYYKYGYWGQGTQVTVSS	low polyreactivity
QVQLVESGGGLVQAGGSLRLSCAASGSIFGSNTMGWYRQAPGKEREFVAAISFSGGSTYDADSVKGRFTISRDNAKNTVYLQMNSLKPEDTAVYYCAARQRRVGTSFYSSRRDYWGQGTQVTVSS	high polyreactivity
QVQLVESGGGLVQAGGSLRLSCAASGRIFYQYAMGWYRQAPGKERELVASITTSGGNTYYADSVKGRFTISRDNAKNTVYLQMNSLKPEDTAVYYCAARFNWRQWLYDYWGQGTQVTVSS	low polyreactivity
QVQLVESGGGLVQAGGSLRLSCAASGSICRSYAMGWYRQAPGKERELVASITRSYGSTYYADSVKGRFTISRDNAKNTVYLQMNSLKPEDTAVYYCNAVVSKSRRFRVDYWGHGTQVTVSS	high polyreactivity
QVQLVESGGGLVQAGGSLRLSCAASGSISSKNAMGWYRQAPGKEREFVAVISGTGGSTYYADSVKGRFTISRDNAKNTVYLQMNSLKPEDTAFYYCAAAASSIVSYGYTWTYGYWGQGTQVTVSS	low polyreactivity
QVQLVESGGGLVQAGGSLRLSCAASVLIFGPYTMGWYRQAPGKEREFDAAINRSGGSTYYADSVKGRFTISRDNAKNTVYLQMNSLKPEDTAVYYCNAEQYGKQWYSGYNYDYWGQGTQVTVSS	high polyreactivity
QVQLVESGGGLVQAGGSLRLSCAASGIIFQSYTMGWYRQAPGKVRELVAAIDSGGSTYYADSVKGRFTISRDNAKNTVYLQMNSLKPEDTAVYYCAAEPDTYWYTYDYWGQGTQVTVSS	low polyreactivity
QVQLVESGGGLVQAGGSLRLSCAASGSTYRGYAMGWYRQAPGKERELVAAISWSGAATYYADSVKGRFTISRDNAKNTVYLQMNSLKPEDTAVYYCAKVARQNWFRYNYDYWGQGTQVTVSS	high polyreactivity
QVQLVESGRGLVQAGGSLRLSCAASGSIFGFYAMGWYREAPGKESELVAAINSGSTNYADSLKGRFTISRDNAKNTVYLQMNSLKPEDTAVYYCNKDKGVQSYVSSDARYNYWGQGTQVTVSS	low polyreactivity
